First the molecules themselves.
B1: SlPSY2pro probe (dsDNA)
DNA 1: TCGGTTATCGGTTATCGGTTA
DNA 2: TAACCGATAACCGATAACCGA
B2: SlLCY1pro probe (dsDNA)
DNA 1: ACCGTTCACCGTTCACCGTTC
DNA 2: GAACGGTGAACGGTGAACGGT
B3: SlPR5pro probe (dsDNA)
DNA 1: TCCGTTCTCCGTTCTCCGTTC
DNA 2: GAACGGAGAACGGAGAACGGA

In this data set the target is SlMYB1-GST (Solanum lycopersicum, UniProt A0A3Q7I0H7 1-380). The data set can be described thus: EMSA; EMSA/Gel-Shift kit (Biyuntian/Beyotime) per instructions; buffer, salt, pH and temperature not stated. The conditions noted are these: protein: recombinant; tags: GST (pGEX-4T-1, N-terminal by vector); label: biotin; blunt.
Chain of SlMYB1-GST (A0A3Q7I0H7 entry or part of it): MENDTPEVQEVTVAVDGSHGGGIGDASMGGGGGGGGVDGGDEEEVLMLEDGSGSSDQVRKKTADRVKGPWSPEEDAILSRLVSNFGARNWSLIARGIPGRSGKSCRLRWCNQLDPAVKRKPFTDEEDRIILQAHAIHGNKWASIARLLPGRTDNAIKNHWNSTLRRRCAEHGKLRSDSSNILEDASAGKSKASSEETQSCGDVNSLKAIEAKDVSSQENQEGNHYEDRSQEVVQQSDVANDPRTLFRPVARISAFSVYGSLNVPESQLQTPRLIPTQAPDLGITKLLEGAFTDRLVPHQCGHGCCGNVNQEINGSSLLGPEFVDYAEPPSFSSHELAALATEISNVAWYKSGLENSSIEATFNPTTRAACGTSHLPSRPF
With B1, the binding result is listed as “binds”.
Consider B2, for which the binding result is on record as “binds”.
The value for B3 was “binds”.
